Measured values reported in patent US9657061B2, “Hydrochloride salt of peptide and its use in combination with other peptides for immunotherapy” (Circassia Limited, priority 2012, dated 2017).
Where no end group is shown, it is not given here.

Experiments:
[1] = Stability of salts of MLA01 on storage: purity by HPLC; type: physicochemical; details: for course of purity over the 4 week test period (in words): −20° C., 5° C., 25° C./60% RH, 40° C./75% RH
Method: (§1) The stability of MLA01 trifluoroacetate, MLA01 acetate and MLA01 hydrochloride when stored in an inert container over a four week period under different storage conditions was tested. The specific storage conditions evaluated are set out in Table 1.
(§2) Samples of each MLA01 salt were stored in inert glass containers with polypropylene twist-off caps. The samples were stored and removed at various time points for testing according to the schedule in Table 2, where X denotes removal of a sample for testing.
The purity of each sample was tested by HPLC. Purity was measured as area-percent, and the results are set out in Tables 3A to 3C below (where “-” denotes test not performed).

[2] = Stability of salts of MLA01 on storage: levels of three specific impurities (RRT 0.978, 1.072, 1.099); type: physicochemical
Method: as §1, §2
The levels of three specific impurities with relative retention times (RRTs) of 0.978, 1.072 and 1.099 were also measured. The impurity with an RRT of 0.978 is the impurity formed by cleavage of the terminal Cys-Pro residues from the MLA01 peptide. The impurity with an RRT of 1.072 is the cysteine sulfinic acid impurity of the MLA01 peptide. The impurity with an RRT of 1.099 is the dimer of the MLA01 peptide. The values are set out in Tables 4A to 4C below (where “<” denotes less than 0.1%).

Row | Sequence | purity (HPLC) ([1]; storage 5° C., 2 weeks) [area-percent] | purity (HPLC) ([1]; storage 5° C., 4 weeks) [area-percent] | purity (HPLC) ([1]; storage 25° C./60% RH, 2 weeks) [area-percent] | purity (HPLC) ([1]; storage 25° C./60% RH, 4 weeks) [area-percent] | purity (HPLC) ([1]; storage 40° C./75% RH, 2 weeks) [area-percent] | purity (HPLC) ([1]; storage 40° C./75% RH, 4 weeks) [area-percent] | purity (HPLC) ([1]; storage −20° C., 0 weeks) [area-percent] | purity (HPLC) ([1]; storage −20° C., 2 weeks) [area-percent] | purity (HPLC) ([1]; storage −20° C., 4 weeks) [area-percent] | course of purity over the 4 week test period (in words) [1] | impurity RRT 0.978 (cleavage of the terminal Cys-Pro residues) ([2]; 0 weeks, −20° C.) [%] | impurity RRT 1.072 (cysteine sulfinic acid impurity) ([2]; 0 weeks, −20° C.) [%] | impurity RRT 1.099 (dimer of the MLA01 peptide) ([2]; 0 weeks, −20° C.) [%] | impurity RRT 0.978 (cleavage of the terminal Cys-Pro residues) ([2]; 4 weeks, 40° C./75% RH) [%] | impurity RRT 1.072 (cysteine sulfinic acid impurity) ([2]; 4 weeks, 40° C./75% RH) [%] | impurity RRT 1.099 (dimer of the MLA01 peptide) ([2]; 4 weeks, 40° C./75% RH) [%] | impurity RRT 0.978 (cleavage of the terminal Cys-Pro residues) ([2]; 4 weeks, −20° C.) [%] | impurity RRT 1.072 (cysteine sulfinic acid impurity) ([2]; 4 weeks, −20° C.) [%] | impurity RRT 1.099 (dimer of the MLA01 peptide) ([2]; 4 weeks, −20° C.) [%] | stability compared with other salt forms (in words) ([1]; 4 week storage, all conditions tested)
1 | CPAVKRDVDLFLT [MLA01 acetate] (also: acetate salt) | 82.7 | 84.2 | 75.6 | 67.2 | 54.0 | 39.4 | 90.6 | 84.5 | 88.1 | degraded under all conditions tested | 2.0 | 2.5 | 1.6 | 17.1 | 5.9 | 12.8 | 2.3 | 2.8 | 2.5 | –
2 | CPAVKRDVDLFLT [MLA01 hydrochloride] (also: hydrochloride salt) | 94.0 | 95.7 | 94.3 | 95.5 | 92.4 | 95.3 | 96.6 | 94.0 | 95.6 | stayed constant | <0.1 | 0.1 | 0.34 | 0.2 | 0.2 | 0.6 | 0.1 | <0.1 | 0.7 | more stable than MLA01 acetate or MLA01 trifluoroacetate
3 | CPAVKRDVDLFLT [MLA01 trifluoroacetate] (also: trifluoroacetate salt) | 95.6 | 95.2 | 94.4 | 94.5 | 91.0 | 89.4 | 96.7 | 95.9 | 95.8 | degraded at higher temperature/humidity | <0.1 | <0.1 | 0.3 | 0.9 | 0.2 | 2.8 | <0.1 | <0.1 | 0.6 | –
